Holding throughout (conditions): both partners purified
For test [1], the target named is T1, Kapβ2 (untagged, GST removed) (human, UniProt Q92973-2 1-890).
T1 construct: Karyopherin β2 (Kapβ2, Transportin-1, TNPO1), human; used for ITC and turbidity assays; also called Karyopherin-β2; Transportin-1; source: E. coli BL21 (DE3), purified (GSH column, Tev cleavage, anion exchange, SEC Superdex200)
T1 sequence (looked up): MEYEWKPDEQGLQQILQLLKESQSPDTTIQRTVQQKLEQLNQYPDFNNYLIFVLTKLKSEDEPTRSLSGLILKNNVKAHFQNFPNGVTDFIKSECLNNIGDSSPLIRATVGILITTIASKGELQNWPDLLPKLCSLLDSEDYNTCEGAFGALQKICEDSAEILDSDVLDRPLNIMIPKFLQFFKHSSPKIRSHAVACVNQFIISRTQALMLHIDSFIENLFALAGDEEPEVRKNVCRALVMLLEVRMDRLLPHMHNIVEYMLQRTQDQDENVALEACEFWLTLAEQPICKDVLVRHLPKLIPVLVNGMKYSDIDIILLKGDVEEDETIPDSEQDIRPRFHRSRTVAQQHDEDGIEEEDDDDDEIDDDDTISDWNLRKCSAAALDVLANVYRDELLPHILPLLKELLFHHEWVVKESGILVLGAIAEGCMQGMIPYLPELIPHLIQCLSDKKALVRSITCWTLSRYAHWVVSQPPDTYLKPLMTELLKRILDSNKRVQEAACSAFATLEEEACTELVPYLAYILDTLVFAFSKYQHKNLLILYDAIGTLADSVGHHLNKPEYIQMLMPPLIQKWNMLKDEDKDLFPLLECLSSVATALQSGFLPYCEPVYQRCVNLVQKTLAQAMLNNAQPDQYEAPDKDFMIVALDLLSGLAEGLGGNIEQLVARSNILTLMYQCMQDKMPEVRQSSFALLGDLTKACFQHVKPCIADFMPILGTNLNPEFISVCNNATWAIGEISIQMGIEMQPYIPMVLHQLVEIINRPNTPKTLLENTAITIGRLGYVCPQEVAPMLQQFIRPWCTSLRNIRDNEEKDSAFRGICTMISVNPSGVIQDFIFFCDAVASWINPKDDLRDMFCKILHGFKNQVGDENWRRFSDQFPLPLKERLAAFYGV
Nature of the test: ITC; quality control of the Kapβ2 preparations with MBP-hnRNP A1 PY-NLS; set-up not told. A general note: In ITC the heat of successive injections is recorded.

The target in test [2] is T1, Kapβ2 (untagged, GST removed). In words: ITC; reversed set-up: 10 μM MBP-FUS protein in the cell, 100 μM or 200 μM Kapβ2 in the syringe; 20 mM Tris–HCl, 150 mM NaCl, 10% glycerol, 2 mM BME; 20 °C; single class of binding sites; 'apparent' KD for FUS(1–370).
The target in test [3] is T2, FUS(P525L)^PY-NLS (475–526, P525L), MBP removed (UniProt P35637 475-526, P525L).
T2 construct: FUS residues 475–526 with the ALS mutation P525L; residues 507–526 modeled in the crystal structure; also called FUS(475–526, P525L); FUS PY-NLS(P525L); source: E. coli, lysed together with bacteria expressing GST-Kapβ2ΔLoop; complex purified (GSH sepharose, amylose, TEV, gel filtration); not shown: MBP, N-terminal, cleaved
T2 sequence (looked up): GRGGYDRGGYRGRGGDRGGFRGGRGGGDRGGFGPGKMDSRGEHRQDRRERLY
In words: crystal structure; Kapβ2ΔLoop·FUS(P525L) PY-NLS complex, 2.7 Å, space group P2(1)2(1)2, molecular replacement; crystals from 1 M succinic acid pH 7.0, 1% PEG MME2000, 20 °C.

This note sets out measurements from paper PMC7881136, “Mechanism of karyopherin-β2 binding and nuclear import of ALS variants FUS(P525L) and FUS(R495X)” (Scientific Reports, 2021).

B1: MBP-hnRNP A1 PY-NLS (domain or fragment)
chain: GGSYNDFGNYNNQSSNFGPMKGGNFGGRSSGPYGGGGQYFAKPRNQGGY
modifications: Limits not printed: conventional hnRNP A1 PY-NLS (M9) construct 257-305 in the 320-aa A1-A isoform, shifted by +52 to the 372-aa canonical entry. MBP omitted.
B1 showed a Kd in test [1] of about 50 nM.

B2: MBP-FUS(R495X) (residues 1–494) (domain or fragment, UniProt P35637 1-494, looked up)
chain: MASNDYTQQATQSYGAYPTQPGQGYSQQSSQPYGQQSYSGYSQSTDTSGYGQSSYSSYGQSQNTGYGTQSTPQGYGSTGGYGSSQSSQSSYGQQSSYPGYGQQPAPSSTSGSYGSSSQSSSYGQPQSGSYSQQPSYGGQQQSYGQQQSYNPPQGYGQQNQYNSSSGGGGGGGGGGNYGQDQSSMSSGGGSGGGYGNQDQSGGGGSGGYGQQDRGGRGRGGSGGGGGGGGGGYNRSSGGYEPRGRGGGRGGRGGMGGSDRGGFNKFGGPRDQGSRHDSEQDNSDNNTIFVQGLGENVTIESVADYFKQIGIIKTNKKTGQPMINLYTDRETGKLKGEATVSFDDPPSAKAAIDWFDGKEFSGNPIKVSFATRRADFNRGGGNGRGGRGRGGPMGRGGYGGGGSGGGGRGGFPSGGGGGGGQQRAGDWKCPNPTCENMNFSWRNECNQCKAPKPDGPGGGPGGSHMGGNYGDDRRGGRGGYDRGGYRGRGGDRGGF
notes: source: E. coli BL21 (DE3), purified (amylose resin, SEC); not shown: MBP, N-terminal, kept
In the case of B2, the Kd in test [2] amounted to 330 nM.

B3: Kapβ2ΔLoop (residues 337–367 replaced with a GGSGGSG linker) (natural protein, human)
chain: MEYEWKPDEQGLQQILQLLKESQSPDTTIQRTVQQKLEQLNQYPDFNNYLIFVLTKLKSEDEPTRSLSGLILKNNVKAHFQNFPNGVTDFIKSECLNNIGDSSPLIRATVGILITTIASKGELQNWPDLLPKLCSLLDSEDYNTCEGAFGALQKICEDSAEILDSDVLDRPLNIMIPKFLQFFKHSSPKIRSHAVACVNQFIISRTQALMLHIDSFIENLFALAGDEEPEVRKNVCRALVMLLEVRMDRLLPHMHNIVEYMLQRTQDQDENVALEACEFWLTLAEQPICKDVLVRHLPKLIPVLVNGMKYSDIDIILLKGDVEEDETIPDSEQDIRGGSGGSGDTISDWNLRKCSAAALDVLANVYRDELLPHILPLLKELLFHHEWVVKESGILVLGAIAEGCMQGMIPYLPELIPHLIQCLSDKKALVRSITCWTLSRYAHWVVSQPPDTYLKPLMTELLKRILDSNKRVQEAACSAFATLEEEACTELVPYLAYILDTLVFAFSKYQHKNLLILYDAIGTLADSVGHHLNKPEYIQMLMPPLIQKWNMLKDEDKDLFPLLECLSSVATALQSGFLPYCEPVYQRCVNLVQKTLAQAMLNNAQPDQYEAPDKDFMIVALDLLSGLAEGLGGNIEQLVARSNILTLMYQCMQDKMPEVRQSSFALLGDLTKACFQHVKPCIADFMPILGTNLNPEFISVCNNATWAIGEISIQMGIEMQPYIPMVLHQLVEIINRPNTPKTLLENTAITIGRLGYVCPQEVAPMLQQFIRPWCTSLRNIRDNEEKDSAFRGICTMISVNPSGVIQDFIFFCDAVASWINPKDDLRDMFCKILHGFKNQVGDENWRRFSDQFPLPLKERLAAFYGV
notes: linker that replaces residues 337–367; crystallisation construct; also called GST-Kapβ2ΔLoop; source: E. coli, lysed together with bacteria expressing MBP-FUS(475–526, P525L); complex purified (GSH sepharose, amylose, TEV, gel filtration)
For B3, in test [3], the binding result is listed as “binds”.
